Measurements taken from the supplement of paper PMC9112550, “Optimization of the antimicrobial peptide Bac7 by deep mutational scanning” (BMC Biology, 2022).

system: Escherichia coli TOP10; assay: shrunken log2 fold change of peptide-encoding DNA abundance (4.5 h post-induction vs induction); higher = less antimicrobial activity (less host growth inhibition); details: time post-induction: 4.5 h; library: site-saturation at positions 5, 18, 19, 20
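Also: peptides expressed intracellularly from a pBAD plasmid library in pooled LB shake-flask culture, induced with 0.3% L-arabinose, DNA abundance read by NGS, three biological replicates, DESeq2 with apeglm shrinkage.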

Sequence	shrunken log2 fold change
RRIRRRPPRLPRPRPRPCDCPRP	0.00422
RRIRRRPPRLPRPRPRPGMWPRP	0.59
RRIRCRPPRLPRPRPRPSMDPRP	-0.182
RRIRWRPPRLPRPRPRPMAMPRP	0.00646
RRIRPRPPRLPRPRPRPSYWPRP	-0.277
RRIRNRPPRLPRPRPRPCNAPRP	-0.0514
RRIRHRPPRLPRPRPRPRYAPRP	-0.0694
RRIRFRPPRLPRPRPRPDYYPRP	-1.21
RRIRQRPPRLPRPRPRPPECPRP	-0.0742
RRIRERPPRLPRPRPRPPYLPRP	-0.0371
RRIRARPPRLPRPRPRPWALPRP	0.172
RRIRTRPPRLPRPRPRPQKKPRP	0.0215
RRIRLRPPRLPRPRPRPECPPRP	0.0712
RRIRLRPPRLPRPRPRPEIQPRP	-0.0217
RRIRTRPPRLPRPRPRPARMPRP	0.127
RRIRGRPPRLPRPRPRPAEGPRP	0.335
RRIRDRPPRLPRPRPRPFQTPRP	0.0255
RRIRKRPPRLPRPRPRPLKKPRP	0.0649
RRIRFRPPRLPRPRPRPQMAPRP	0.168
RRIRCRPPRLPRPRPRPINGPRP	-0.282
RRIRWRPPRLPRPRPRPHIMPRP	-0.457
RRIRPRPPRLPRPRPRPVTLPRP	0.527
RRIRERPPRLPRPRPRPFNTPRP	-0.124
RRIRQRPPRLPRPRPRPQSYPRP	0.015
RRIRSRPPRLPRPRPRPELQPRP	0.239

Sequence	shrunken log2 fold change
RRIRVRPPRLPRPRPRPYDYPRP	-0.00141
RRIRARPPRLPRPRPRPEDCPRP	0.243
RRIRLRPPRLPRPRPRPKSRPRP	-0.176
RRIRYRPPRLPRPRPRPTWQPRP	-0.255
RRIRGRPPRLPRPRPRPVNIPRP	0.145
RRIRQRPPRLPRPRPRPINTPRP	-0.129
RRIRIRPPRLPRPRPRPPQRPRP	0.27
RRIRYRPPRLPRPRPRPKQAPRP	0.0341
RRIRPRPPRLPRPRPRPYLNPRP	-0.765
RRIRQRPPRLPRPRPRPAHFPRP	0.464
RRIRDRPPRLPRPRPRPKMLPRP	0.11
RRIRKRPPRLPRPRPRPCDPPRP	0.121
RRIRVRPPRLPRPRPRPLHTPRP	-0.0261
RRIRVRPPRLPRPRPRPKKEPRP	0.18
RRIRWRPPRLPRPRPRPYSDPRP	-0.381
RRIRNRPPRLPRPRPRPRAFPRP	0.0795
RRIRERPPRLPRPRPRPNQSPRP	-0.236
RRIRNRPPRLPRPRPRPLEYPRP	-0.816
RRIRVRPPRLPRPRPRPIFSPRP	-0.628
RRIRDRPPRLPRPRPRPAHMPRP	-0.125
RRIRWRPPRLPRPRPRPQESPRP	0.00801
RRIRDRPPRLPRPRPRPAWYPRP	-0.0946
RRIRWRPPRLPRPRPRPCKPPRP	0.119
RRIRYRPPRLPRPRPRPVWGPRP	0.432
RRIRIRPPRLPRPRPRPCCPPRP	-0.168

Sequence	shrunken log2 fold change
RRIRYRPPRLPRPRPRPLAEPRP	-0.149
RRIRKRPPRLPRPRPRPSKNPRP	0.219
RRIRFRPPRLPRPRPRPRYSPRP	-0.736
RRIRSRPPRLPRPRPRPCGDPRP	-0.0559
RRIRNRPPRLPRPRPRPWLYPRP	-0.00103
RRIRKRPPRLPRPRPRPNHDPRP	-0.0524
RRIRSRPPRLPRPRPRPTMTPRP	0.391
RRIRTRPPRLPRPRPRPESGPRP	0.366
RRIRGRPPRLPRPRPRPKKKPRP	0.354
RRIRERPPRLPRPRPRPHMFPRP	-0.749
RRIRYRPPRLPRPRPRPWWPPRP	-0.254
RRIRTRPPRLPRPRPRPTFWPRP	0.467
RRIRMRPPRLPRPRPRPRQVPRP	0.388
RRIRHRPPRLPRPRPRPMMRPRP	0.0201
RRIRKRPPRLPRPRPRPNFHPRP	0.676
RRIRFRPPRLPRPRPRPRHRPRP	0.195
RRIRLRPPRLPRPRPRPNLTPRP	-0.299
RRIRLRPPRLPRPRPRPVHKPRP	-0.256
RRIRIRPPRLPRPRPRPIADPRP	-0.0882
RRIRSRPPRLPRPRPRPQAYPRP	0.0251
RRIRHRPPRLPRPRPRPKTFPRP	-0.45
RRIRKRPPRLPRPRPRPPGLPRP	0.308
RRIRIRPPRLPRPRPRPWIQPRP	-0.318
RRIRPRPPRLPRPRPRPMCYPRP	-0.221
RRIRMRPPRLPRPRPRPRPNPRP	0.903

Sequence	shrunken log2 fold change
RRIRHRPPRLPRPRPRPRLIPRP	-0.0786
RRIRYRPPRLPRPRPRPCWSPRP	-0.768
RRIRKRPPRLPRPRPRPKFYPRP	-0.0589
RRIRHRPPRLPRPRPRPDSGPRP	-0.0385
RRIRSRPPRLPRPRPRPQDQPRP	-0.0695
RRIRYRPPRLPRPRPRPARWPRP	0.135
RRIRVRPPRLPRPRPRPYVVPRP	-0.0262
RRIRIRPPRLPRPRPRPVLDPRP	0.0135
RRIRCRPPRLPRPRPRPNMGPRP	-0.14
RRIRHRPPRLPRPRPRPHNAPRP	-0.809
RRIRPRPPRLPRPRPRPTCNPRP	-0.142
RRIRWRPPRLPRPRPRPQFDPRP	0.0373
RRIRKRPPRLPRPRPRPDLMPRP	0.0729
RRIRARPPRLPRPRPRPQYKPRP	-0.303
RRIRARPPRLPRPRPRPSCIPRP	-0.131
RRIRCRPPRLPRPRPRPKQLPRP	-0.0668
RRIRDRPPRLPRPRPRPDTFPRP	-0.0268
RRIRQRPPRLPRPRPRPYCLPRP	-0.423
RRIRDRPPRLPRPRPRPALLPRP	1.02
RRIRWRPPRLPRPRPRPIAEPRP	0.00894
RRIRARPPRLPRPRPRPVHTPRP	0.375
RRIRNRPPRLPRPRPRPRVHPRP	0.172
RRIRNRPPRLPRPRPRPEFVPRP	0.189
RRIRDRPPRLPRPRPRPQATPRP	0.403
RRIRERPPRLPRPRPRPYTCPRP	-0.398

Sequence	shrunken log2 fold change
RRIRARPPRLPRPRPRPDRVPRP	-0.0545
RRIRVRPPRLPRPRPRPNHDPRP	-0.369
RRIRVRPPRLPRPRPRPHIHPRP	-0.545
RRIRQRPPRLPRPRPRPPRMPRP	0.442
RRIRYRPPRLPRPRPRPGNVPRP	0.0571
RRIRPRPPRLPRPRPRPEDYPRP	-0.0172
RRIRDRPPRLPRPRPRPGMKPRP	-0.00884
RRIRIRPPRLPRPRPRPKNQPRP	-0.359
RRIRLRPPRLPRPRPRPWGKPRP	-0.0201
RRIRQRPPRLPRPRPRPIIHPRP	-0.054
RRIRQRPPRLPRPRPRPYMLPRP	-0.168
RRIRQRPPRLPRPRPRPMAFPRP	-0.0854
RRIRKRPPRLPRPRPRPWVIPRP	-0.182
RRIRQRPPRLPRPRPRPEPIPRP	0.047
RRIRDRPPRLPRPRPRPTIEPRP	0.324
RRIRLRPPRLPRPRPRPLVDPRP	-0.0956
RRIRCRPPRLPRPRPRPLCTPRP	-0.088
RRIRLRPPRLPRPRPRPVLMPRP	-0.04
RRIRSRPPRLPRPRPRPEAKPRP	0.401
RRIRIRPPRLPRPRPRPWCVPRP	-0.698
RRIRFRPPRLPRPRPRPSFYPRP	-0.514
RRIRMRPPRLPRPRPRPVKWPRP	0.0346
RRIRKRPPRLPRPRPRPDEFPRP	1.24
RRIRSRPPRLPRPRPRPDYQPRP	-0.242
RRIRERPPRLPRPRPRPPMDPRP	-0.214
